# ± gives the half width of the 95% confidence interval.
# Assay: folding stability dG unfold from trypsin proteolysis; higher = more stable
# Outline: (§1)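 How resistant each design was to proteolysis was captured as K50, inferred by Bayesian fitting of sequencing counts. Unfolding free energy was then derived relative to a sequence-predicted unfolded-state K50 and a shared folded-state K50, per protease or combined. Digestion used trypsin and chymotrypsin at 11 threefold-diluted concentrations plus a no-protease condition, on mini-proteins under 80 residues without cysteine in a PA-tagged cDNA display construct. Designs were kept only when AlphaFold2 dimer inter-PAE was above 15.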
row,Sequence,folding stability dG unfold
1,SAGGSAGGSPESVTFPVGDYLVTVTRNPEDGSLTVTVYDPKTGKPIVLPPEVLAENPDLAENLSAGGSAGGS [r12_817_TrMRF],3.14 ± 0.11 kcal/mol
2,SAGMTFKNPGSDKTLTYEPETGAITLHNGDSVSTLPLPPGTSFTVTVDPEKGVVTITVPETGATITLPLSAG [r5_858_JUSTAS],1.07 ± 0.028 kcal/mol
3,SKAEIVEIKIEKVEKDGKKYYKVKIKVKTKDGKIKEIEITFPEGMSEEEIKKKIEELAKELGIEKVEIKPSA [r9_1203_TrROS_Hall],3.76 ± 0.44 kcal/mol
4,SAGGNFVVPFKDPEQVKEIREAAEKGEEIEITPPDGKKFTFKVESVEVDPESGRVVIKLPSGKEFPLSAGGS [r16_254_TrMRF],0.275 ± 0.057 kcal/mol
5,MKVEIVEVEYDEETKRVRVKLKVDGKLVEIEFDLESGKVTVRIYEDGEEIEIEAESVEDALEKAKELVKEKS [r1_177_TrROS_Hall],2.02 ± 0.2 kcal/mol
6,SAGGSAGGSAGGMVETGTPSSGSSSPSYVLTTTTLTLLDGTFVPTTTTTTFSDPAEAAAASAGGSAGGSAGG [r7_896_JUSTAS],1.52 ± 0.082 kcal/mol
7,SAGGSPGSSLIGKKKLTIKVDNKDVEVEVTTSLSFLPSNQVTTSTEVKITLPNGKKIPKSLVEKLLSAGGSA [r2_363_JUSTAS],0.711 ± 0.044 kcal/mol
8,SAGGSAGGSDDDENQKENQKAKPIKLEPIVEITVPYPDGFSLTVPIWRWPDGGIGIELEIFPLGSAGGSAGG [r6_326_TrROS],0.867 ± 0.071 kcal/mol
9,SAGGSAGGSNKKKKTIMFTIKLDVPEGTPTAEEIADELKELSPNVEIDNIMFTPNEVYIMIKVSAGGSAGGS [r12_454_TrROS],1.16 ± 0.077 kcal/mol
10,SAGGSAGGSASTTVTYVEIKVTNPNPPGTPVAEYLIPLSEITEEMIEKLEKEGGLKVEVTVVLSAGGSAGGS [r12_398_JUSTAS],1.2 ± 0.12 kcal/mol
11,MSEEELRELEERLAAPGPVEVRVEVEVREEEGDEPVFVFRVRYYRPEPGEELGEEEIVVPEEELEELLRELS [r1_415_TrMRF],1.34 ± 0.065 kcal/mol
12,SAGMVEVYEEDKRLLVRVTLESPDPSTITEETVRELLERLGLPVEELEISPTALPNGSYTVTAEVVVLPSAG [r5_922_JUSTAS],1.39 ± 0.056 kcal/mol
13,SAGGSAGGKKKVLLVKVEIELPNGEKLELVAESEEEALEALKKLLEKKGLKIKKVEIVELEEKESAGGSAGG [r6_405_TrROS_Hall],1.64 ± 0.071 kcal/mol
14,SAGGSAGGSAGGKVKVLSVFELPNNKRLVLIETPSGKKILIVTDSSDPDKVKEKAKEIASAGGSAGGSAGGS [r10_472_TrMRF],1.54 ± 0.02 kcal/mol
15,SAGGSAGGSAGGHYIRAEIEIKYEHPGNGQEQTMTIPIEIPIPPPPPVSAEDRAKQNGIGSAGGSAGGSAGG [r7_79_TrROS],0.318 ± 0.084 kcal/mol
16,SMKIEVEKLEDGTYVITIEDPGEDDIPVTYKAVVFVDPETGKVYVDRNIEDPNVPPELKELFENFIPGIESA [r9_715_TrMRF],2.5 ± 0.094 kcal/mol

row,Sequence,folding stability dG unfold
1,SSVTLVLEKPLPSGKRLVVVTTLKPEPARGTVRLDVTTTTYTFSKTENGEITTSSTTSTSTETVSPEELLSA [r9_1137_JUSTAS],2.53 ± 0.13 kcal/mol
2,SAGGPPGWKPVEMKITVMFDDPEEAAEKIKEEVRSHFPNIEITKVEVQRNPENNMYMVTVDIRMWVPSAGGS [r8_120_TrROS],3.08 ± 0.18 kcal/mol
3,SAGGLKIDEFERSPNQGRYYVTIKIYHPDNGKPWDIEVPFNPDNGRWSAEEIAKTIAKKFKLPPGFTISAGG [r13_362_TrROS],1.814 ± 0.014 kcal/mol
4,SAGGPNLYIFIKIEHKGQTVTFMYPVPPGNLEKLVDEIASMGFPEIKIEEIYIFPPNGWIPVTVRLPSAGGS [r8_219_TrROS],2.88 ± 0.13 kcal/mol
5,SAGGMYMVQIEVRSPDKEIPFMIMVPEDDPKKIVDDIKEEIAEEAGADNVNIKIEVYRMDENGEWEWISAGG [r13_877_TrROS],0.866 ± 0.088 kcal/mol
6,SAGGSAGGSAGGGMARAEKLPSSWTLVSVTPRDGSTVVTYKLPDGSTLTLDLRPDSYDGASAGGSAGGSAGG [r7_775_JUSTAS],0.436 ± 0.058 kcal/mol
7,SAGGAFPPGEKVEVRIEVVELPGEGTYLLRAYLPGGKLLWERPFPEGELEAFAEEFRSLGFDTVEVTPSAGG [r13_765_TrMRF],2.512 ± 0.021 kcal/mol
8,SAGGSAGGSSPVPVKVSANSVEPGESSSSNINIPKEALEKDSLTPEELKKILQKQGPNVTITGSAGGSAGGS [r20_221_JUSTAS],-0.423 ± 0.086 kcal/mol
9,SAGGSAGGSAGGPDFKIEPVEKKGNYELYKAYIPETGEEFFLVYYPNPKEVKIYPSDYLSAGGSAGGSAGGS [r10_172_TrMRF],0.754 ± 0.038 kcal/mol
10,SAGGSFVKIKVKFDNKPIEIPIPDFVQKVEGDYQTIVFPEGDADSVLKKLKEASKKIEIVKVEVVKPSAGGS [r8_490_TrMRF],-0.735 ± 0.24 kcal/mol
11,SANIQIMIEDWDPERGWIRISIQVDKGDPDKPITPELVNNIRELFRFRGIEVNIEVHPDGMVNIEIPIPSAG [r14_865_TrROS],3.39 ± 0.069 kcal/mol
12,SAGGMKIKLKNGKVIEIKKKPGYIEIKIIDKKTKKVYTYTFKSKDGKISLEDLAKKLAELPNIKEIIPSAGG [r13_579_TrROS_Hall],3.3 ± 0.29 kcal/mol
13,SAGGMSPDQIWKAKLLSRKKGKNGSVYNIVIYNPDNPKPIFINKPGDNPEDVLKELEELVKKGPIDLESAGG [r13_286_TrMRF],0.354 ± 0.22 kcal/mol
14,SIIRSPNGYWIVITVKVPEGAKPFPPGFEVQRDPEKGTLTIIMPMPPDDIRRLAEHPGVEIEKIEFIPWDSA [r9_827_TrROS],1.14 ± 0.032 kcal/mol
15,SAGGSAGGSVIPYFDENAVALLVKGPGDYYRIIFKPNDGYLVLLLPKEVIKSKPIPIGELLKKSAGGSAGGS [r20_90_TrMRF],0.672 ± 0.11 kcal/mol

# Assay: folding stability dG unfold from chymotrypsin proteolysis; higher = more stable
# Outline: as §1
row,Sequence,folding stability dG unfold
1,SAGGSAGGSPESVTFPVGDYLVTVTRNPEDGSLTVTVYDPKTGKPIVLPPEVLAENPDLAENLSAGGSAGGS [r12_817_TrMRF],2.35 ± 0.058 kcal/mol
2,SAGMTFKNPGSDKTLTYEPETGAITLHNGDSVSTLPLPPGTSFTVTVDPEKGVVTITVPETGATITLPLSAG [r5_858_JUSTAS],0.248 ± 0.22 kcal/mol
3,SKAEIVEIKIEKVEKDGKKYYKVKIKVKTKDGKIKEIEITFPEGMSEEEIKKKIEELAKELGIEKVEIKPSA [r9_1203_TrROS_Hall],4.7 ± 0.24 kcal/mol
4,SAGGNFVVPFKDPEQVKEIREAAEKGEEIEITPPDGKKFTFKVESVEVDPESGRVVIKLPSGKEFPLSAGGS [r16_254_TrMRF],0.62 ± 0.24 kcal/mol
5,MKVEIVEVEYDEETKRVRVKLKVDGKLVEIEFDLESGKVTVRIYEDGEEIEIEAESVEDALEKAKELVKEKS [r1_177_TrROS_Hall],1.69 ± 0.12 kcal/mol
6,SAGGSAGGSAGGMVETGTPSSGSSSPSYVLTTTTLTLLDGTFVPTTTTTTFSDPAEAAAASAGGSAGGSAGG [r7_896_JUSTAS],0.411 ± 0.077 kcal/mol
7,SAGGSPGSSLIGKKKLTIKVDNKDVEVEVTTSLSFLPSNQVTTSTEVKITLPNGKKIPKSLVEKLLSAGGSA [r2_363_JUSTAS],0.66 ± 0.17 kcal/mol
8,SAGGSAGGSDDDENQKENQKAKPIKLEPIVEITVPYPDGFSLTVPIWRWPDGGIGIELEIFPLGSAGGSAGG [r6_326_TrROS],1.44 ± 0.045 kcal/mol
9,SAGGSAGGSNKKKKTIMFTIKLDVPEGTPTAEEIADELKELSPNVEIDNIMFTPNEVYIMIKVSAGGSAGGS [r12_454_TrROS],1.84 ± 0.062 kcal/mol
10,SAGGSAGGSASTTVTYVEIKVTNPNPPGTPVAEYLIPLSEITEEMIEKLEKEGGLKVEVTVVLSAGGSAGGS [r12_398_JUSTAS],1.44 ± 0.033 kcal/mol
11,MSEEELRELEERLAAPGPVEVRVEVEVREEEGDEPVFVFRVRYYRPEPGEELGEEEIVVPEEELEELLRELS [r1_415_TrMRF],2.31 ± 0.086 kcal/mol
12,SAGMVEVYEEDKRLLVRVTLESPDPSTITEETVRELLERLGLPVEELEISPTALPNGSYTVTAEVVVLPSAG [r5_922_JUSTAS],1.61 ± 0.025 kcal/mol
13,SAGGSAGGKKKVLLVKVEIELPNGEKLELVAESEEEALEALKKLLEKKGLKIKKVEIVELEEKESAGGSAGG [r6_405_TrROS_Hall],2.41 ± 0.051 kcal/mol
14,SAGGSAGGSAGGKVKVLSVFELPNNKRLVLIETPSGKKILIVTDSSDPDKVKEKAKEIASAGGSAGGSAGGS [r10_472_TrMRF],1.822 ± 0.017 kcal/mol
15,SAGGSAGGSAGGHYIRAEIEIKYEHPGNGQEQTMTIPIEIPIPPPPPVSAEDRAKQNGIGSAGGSAGGSAGG [r7_79_TrROS],0.855 ± 0.041 kcal/mol
